Reference: IntAct's records for PubMed 27951647

B1: Acid stress protein IbaG (Escherichia coli (strain K12)), P0A9W6 (parent)
chain: MENNEIQSVLMNALSLQEVHVSGDGSHFQVIAVGELFDGMSRVKKQQTVYGPLMEYIADNRIHAVSIKAYTPAEWARDRKLNGF
partner: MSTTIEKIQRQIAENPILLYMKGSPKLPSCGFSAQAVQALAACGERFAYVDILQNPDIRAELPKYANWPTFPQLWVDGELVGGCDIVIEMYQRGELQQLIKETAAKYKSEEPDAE

Variants of: B1
Details: with glrx4_ecoli grxD

Effect of a mutation on the interaction, with no effect:
MENNEIQSVLMNALSLQEVHVSGDGSAFQVIAVGELFDGMSRVKKQQTVYGPLMEYIADNRIHAVSIKAYTPAEWARDRKLNGF [H27A]
MENNEIQSVLMNALSLQEVHVSGDGSCFQVIAVGELFDGMSRVKKQQTVYGPLMEYIADNRIHAVSIKAYTPAEWARDRKLNGF [H27C]
MENNEIQSVLMNALSLQEVHVSGDGAHFQVIAVGELFDGMSRVKKQQTVYGPLMEYIADNRIHAVSIKAYTPAEWARDRKLNGF [S26A]
MENNEIQSVLMNALSLQEVHVSGDGSHFQVIAVGELFDGMSRVKKQQTVYGPLMEYIADNRIAAVSIKAYTPAEWARDRKLNGF [H63A]
MENNEIQSVLMNALSLQEVHVSGDGSHFQVIAVGELFDGMSRVKKQQTVYGPLMEYIADNRICAVSIKAYTPAEWARDRKLNGF [H63C]
